According to article PMC7261492, “ISCU interacts with NFU1, and ISCU[4Fe-4S] transfers its Fe-S cluster to NFU1 leading to the production of holo-NFU1” (Journal of structural biology, 2020):

Experiments:
human apo-NFU1 (human) [1] = target: human apo-NFU1 (human) (UniProt Q9UMS0); assay: SAXS; apo-NFU1:ISCU complex isolated by SEC, dialysed against HNT buffer, 2-8 mg/mL, 298 K; molecular mass by the Vc approach
human apo-NFU1 (human) [2] = target: human apo-NFU1 (human) (UniProt Q9UMS0); assay: ITC; Nano ITC, 25 °C, HNT buffer; syringe 0.8 mM ISCU, cell (169 μL) 0.03 mM NFU1; 20 injections of 2.5 μL; fitted to a 1:1 binding mode
[3] = target: the molecule itself; assay: SEC; anaerobic; mixture of [U-15N]-apo-NFU1 and ISCU[4Fe-4S] incubated 30 min, HiLoad Superdex 200 PG, HNT buffer, 1 mL/min; fractions analysed by SDS-PAGE
[4] = target: T1, human ISCU (human), Q9H1K1; assay: as above; conditions: remark: other sources report otherwise
T1 chain: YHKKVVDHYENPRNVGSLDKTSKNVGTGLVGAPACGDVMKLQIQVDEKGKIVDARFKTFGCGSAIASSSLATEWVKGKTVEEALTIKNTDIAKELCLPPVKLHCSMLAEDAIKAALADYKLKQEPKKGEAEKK

Molecule “human ISCU (from UniProt Q9H1K1 35-167) (natural protein)” has a stoichiometry N (human apo-NFU1 (human) [1]) of 1 and a Kd (human apo-NFU1 (human) [2]) of 1100 nM.

B1: human holo-NFU1 (natural protein, UniProt Q9UMS0 10-254, looked up)
chain: GAAAVAAGLRRRFCHMLKNPYTIKKQPLHQFVQRPLFPLPAAFYHPVRYMFIQTQDTPNPNSLKFIPGKPVLETRTMDFPTPAAAFRSPLARQLFRIEGVKSVFFGPDFITVTKENEELDWNLLKPDIYATIMDFFASGLPLVTEETPSGEAGSEEDDEVVAMIKELLDTRIRPTVQEDGGDVIYKGFEDGIVQLKLQGSCTSCPSSIITLKNGIQNMLQFYIPEVEGVEQVMDDESDEKEANSP
modifications: [4Fe-4S] cluster bound by C195 and C198; two NFU1 chains supply the four cysteine ligands of one cluster
notes: NFU1, human, with both the N-terminal domain (NTD) and the C-terminal domain (CTD); Same chain as m2 with the [4Fe-4S] cluster; trimer of cluster-linked dimers (hexamer, 160 kDa); also called NFU1[4Fe-4S]; hexameric holo-NFU1; source: prepared as described earlier (Cai et al., 2016); in the anaerobic SEC formed by adding ISCU[4Fe-4S] to [U-15N]-apo-NFU1
B1 was tested, and the “stoichiometry N” value [3] was 6.

B2: human ISCU, Q9H1K1 35-167 (natural protein)
chain: YHKKVVDHYENPRNVGSLDKTSKNVGTGLVGAPACGDVMKLQIQVDEKGKIVDARFKTFGCGSAIASSSLATEWVKGKTVEEALTIKNTDIAKELCLPPVKLHCSMLAEDAIKAALADYKLKQEPKKGEAEKK
B2 gave a stoichiometry N [4] of 2.
